Drawing on paper PMC10592267, this text covers stoichiometry N for one substance.

What is called stoichiometry N is a count of units in the complex or per binding partner.

The target of the test is poplar cellulose synthase isoform-8 (CesA8) from hybrid aspen (hybrid aspen (poplar)). The test is described as follows: cryo-EM structure; purified CesA8 in 0.02% GDN, incubated with 20 mM MgCl2 and 5 mM UDP or UDP-Glc for 30 min on ice before grid preparation; non-uniform refinement with C3 symmetry.

As for “poplar cellulose synthase isoform-8 (CesA8) from hybrid aspen (enzyme)”, the stoichiometry N is 3.
